Substrate: CCCCCCCCCCCC(=O)CC(=O)O
Assay: Steady-state kinetic decarboxylase assay (3-ketomyristic acid to 2-tridecanone, GC-MS)
Type: biochemical, Solanum habrochaites f glabratum
Conditions: other: ShMKS1 decarboxylase, substrate 5 μM to 75 μM, pH 7.0, 23° C., 10 min
Procedure: To examine the possible decarboxylase activity of ShMKS1 as well as ShMKS2 in vitro, we tested homogenous recombinant ShMKS1 and partially purified recombinant ShMKS2 proteins (without their transit peptides) for their ability to convert 3-ketomyristic acid into its 2-tridecanone decarboxylated product. […] In steady-state kinetic assays, ShMKS1 was determined to have a KM of 18.4±5.6 μM for 3-ketomyristic acid, with an apparent kcat of 227.9±24.1 min^−1.
His-tagged ShMKS1 and ShMKS2 were affinity-purified on Nickel-agarose chromatography using the protocol described in Fridman et al., (2005) Metabolic, genomic, and biochemical analyses of glandular trichomes from the wild tomato species Lycopersicon hirsutum identify a key enzyme in the biosynthesis of methylketones, Plant Cell 17: 1252-1267. After elution from the Nickel-agarose column, the proteins were analyzed by SDS-PAGE and ShMKS2 dialyzed against 50 mM phosphate buffer pH 6.8, 500 mM NaCl, and 1M (NH4)2SO4, and 2 mM DTT and ShMKS1 dialyzed against 12.5 mM phosphate buffer pH 6.8, 50 mM NaCl, and 2 mM DTT. ShMKS1 purity was estimated at 99%, and ShMKS2 purity was estimated at 6%.
A typical decarboxylase assay consisted of a 500 μL reaction solution containing ShMKS1 or ShMKS2 (2.5 μg), 3-ketomyristic acid (0.1 mM), and 1,3-bis(tris(hydroxymethyl)methylamino) propane—Na^+ (20 mM, pH 7.0). […]

B1: Solanum habrochaites f glabratum methylketone synthase 1 (ShMKS1), recombinant His-tagged, SEQ ID NO: 17 (Solanum habrochaites) (protein)
chain: MEKSMSPFVKKHFVLVHTAFHGAWCWYKIVALMRSSGHNVTALDLGASGINPKQALQIPNFSDYLSPLMEFMASLPANEKIILVGHALGGLAISKAMETFPEKISVAVFLSGLMPGPNIDATTVCTKAGSAVLGQLDNCVTYENGPTNPPTTLIAGPKFLATNVYHLSPIEDLALATALVRPLYLYLAEDISKEVVLSSKRYGSVKRVFIVATENDALKKEFLKLMIEKNPPDEVKEIEGSDHVTMMSKPQQLFTTLLSIANKYK
notes: no cleavable transit peptide, 265-residue protein
- Km: 18.4 ± 5.6 µM
- kcat: 227.9 ± 24.1 min⁻¹
